For two molecules, IC50 (read off the curve) results are on record in US20240083991A1.

For test [1], the target named is human mature BMP9 (human) (UniProt Q9UK05). Put plainly: competition ELISA: antibody mixed with 0.2 nM BMP9-biotin, binding to coated ALK1 (1 µg/ml) detected. Background: An ELISA detects its analyte on a solid surface through an enzyme-linked reagent.
Test [2] shares this target. Put plainly: competition ELISA: antibody mixed with 0.5 nM BMP9-biotin, binding to coated ALK1 (1 µg/ml) detected.
The target is the same in test [3]. Briefly: competition ELISA: antibody mixed with 15 nM BMP9-biotin, binding to coated ActRIIB (5 µg/ml) detected.
The target is the same in test [4]. Put plainly: competition ELISA: antibody mixed with 5 nM BMP9-biotin, binding to coated ActRIIA (5 µg/ml) detected.
For test [5] the target is unchanged. Put plainly: competition ELISA: antibody mixed with 1.5 nM BMP9-biotin, binding to coated BMPRII (2 µg/ml) detected.
Test [6] shares this target. Briefly: competition ELISA: antibody mixed with 0.6 nM BMP9-biotin, binding to coated BMPRII (1 µg/ml) detected.

Sequence of human mature BMP9 (human) (Q9UK05 320-429): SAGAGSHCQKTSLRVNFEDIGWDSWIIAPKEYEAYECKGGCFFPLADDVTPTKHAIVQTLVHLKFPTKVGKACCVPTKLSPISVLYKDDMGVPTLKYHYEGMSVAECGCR

B1: BM02 (antibody, from another filing, V domains shown)
VH: QVQLVQSGAEVKKPGASVKVSCKASGYTFRSYNMHWVRQAPGQGLEWMGLIYPGNAVTSYSQKFKDRVTMTVDKSTSTAYMELSSLRSEDTAVYYCAKDDYFRGGSYAMDYWGQGTTVTVSS
VL: EIVLTQSPDFQSVTPKEKVTITCRASQSIRNNLHWYQQKPDQSPKLLIKYASQSIRGVPSRFSGSGSGTDFTLTINSLEAEDAATYYCQQSHSWPYTFGGGTKVEIKR
In the case of B1, the IC50 (read off the curve) worked out at 0.06 nM in test [1] and 0.1 nM in test [2].

B2: BM01 (antibody, from another filing, V domains shown)
VH: QVQLVQSGAEVKKPGASVKVSCKASGYTFTRYWMHWVRQAPGQGLEWMGEINPSQGGTNYNEKFKSRVTMTVDKSISTAYMELSRLRSDDTAVYYCAIGSNYGGLVYWGQGTLVTVSS
VL: EIVLTQSPATLSLSPGERATLSCRASESLDNYGISFMNWFQQKPGQAPRFLIYAASNQGSGIPARFSGSGSGTDFTLTISSLQPEDTAVYFCQQSKEVPRTFGGGTKVEIKR
Turning to B2, the IC50 (read off the curve) in test [3] amounted to 8 nM; in test [4], 2 nM; in test [5] it was 2 nM; in test [6], 0.1 nM.
